Assay results taken from patent US8211429 (dated 2012).
Numbering of substitutions follows the chain as printed. Like-named read-outs stand apart in the source and are kept apart here.

T1: human NRP2 (human, UniProt O60462)
T1 chain: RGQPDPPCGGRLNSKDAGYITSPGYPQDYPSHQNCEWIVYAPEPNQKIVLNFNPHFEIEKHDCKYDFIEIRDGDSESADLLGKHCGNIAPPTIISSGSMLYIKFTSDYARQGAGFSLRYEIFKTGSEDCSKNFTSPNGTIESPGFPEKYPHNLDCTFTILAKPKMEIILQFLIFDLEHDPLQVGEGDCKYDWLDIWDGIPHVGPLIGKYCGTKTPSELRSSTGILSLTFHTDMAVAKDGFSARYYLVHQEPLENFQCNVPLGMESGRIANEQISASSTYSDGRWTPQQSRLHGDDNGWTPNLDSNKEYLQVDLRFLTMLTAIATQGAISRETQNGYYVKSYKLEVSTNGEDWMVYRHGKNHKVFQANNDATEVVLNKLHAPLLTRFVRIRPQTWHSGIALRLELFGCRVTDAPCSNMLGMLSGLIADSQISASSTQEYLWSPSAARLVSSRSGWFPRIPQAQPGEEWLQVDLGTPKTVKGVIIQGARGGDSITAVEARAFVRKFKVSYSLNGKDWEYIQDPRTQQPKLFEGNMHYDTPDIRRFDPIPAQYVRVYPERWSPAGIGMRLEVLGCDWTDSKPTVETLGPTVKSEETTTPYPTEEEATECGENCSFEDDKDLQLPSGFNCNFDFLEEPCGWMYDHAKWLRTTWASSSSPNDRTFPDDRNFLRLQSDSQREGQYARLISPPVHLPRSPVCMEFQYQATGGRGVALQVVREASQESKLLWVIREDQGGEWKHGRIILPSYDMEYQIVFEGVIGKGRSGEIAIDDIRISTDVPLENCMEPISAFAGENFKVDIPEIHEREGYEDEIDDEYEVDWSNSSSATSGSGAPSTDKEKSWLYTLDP

T2: murine NRP2 (mouse, UniProt O35375)
T2 chain: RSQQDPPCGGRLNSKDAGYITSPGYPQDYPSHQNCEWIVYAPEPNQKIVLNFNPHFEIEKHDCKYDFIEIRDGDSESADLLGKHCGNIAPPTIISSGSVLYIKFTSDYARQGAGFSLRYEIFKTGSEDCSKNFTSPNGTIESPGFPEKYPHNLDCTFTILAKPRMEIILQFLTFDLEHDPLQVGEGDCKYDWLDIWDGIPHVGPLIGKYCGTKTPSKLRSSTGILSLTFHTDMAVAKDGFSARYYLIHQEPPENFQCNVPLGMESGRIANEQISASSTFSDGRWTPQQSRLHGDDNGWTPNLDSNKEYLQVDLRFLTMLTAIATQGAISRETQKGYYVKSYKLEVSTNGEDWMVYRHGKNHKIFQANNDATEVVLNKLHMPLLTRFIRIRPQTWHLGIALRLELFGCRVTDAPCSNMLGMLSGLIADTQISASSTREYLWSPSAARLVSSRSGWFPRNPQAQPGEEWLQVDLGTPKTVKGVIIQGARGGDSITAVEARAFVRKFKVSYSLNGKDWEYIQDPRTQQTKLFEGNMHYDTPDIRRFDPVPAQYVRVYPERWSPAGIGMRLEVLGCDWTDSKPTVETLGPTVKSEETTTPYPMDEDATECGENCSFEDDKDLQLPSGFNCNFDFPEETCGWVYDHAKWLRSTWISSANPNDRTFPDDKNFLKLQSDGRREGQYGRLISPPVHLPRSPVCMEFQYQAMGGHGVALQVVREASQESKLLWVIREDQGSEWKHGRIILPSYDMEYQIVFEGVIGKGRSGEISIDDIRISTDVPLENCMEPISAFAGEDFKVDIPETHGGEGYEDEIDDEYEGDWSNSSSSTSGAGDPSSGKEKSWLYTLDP

T3: murine NRP1 (mouse, UniProt P97333)
T3 chain: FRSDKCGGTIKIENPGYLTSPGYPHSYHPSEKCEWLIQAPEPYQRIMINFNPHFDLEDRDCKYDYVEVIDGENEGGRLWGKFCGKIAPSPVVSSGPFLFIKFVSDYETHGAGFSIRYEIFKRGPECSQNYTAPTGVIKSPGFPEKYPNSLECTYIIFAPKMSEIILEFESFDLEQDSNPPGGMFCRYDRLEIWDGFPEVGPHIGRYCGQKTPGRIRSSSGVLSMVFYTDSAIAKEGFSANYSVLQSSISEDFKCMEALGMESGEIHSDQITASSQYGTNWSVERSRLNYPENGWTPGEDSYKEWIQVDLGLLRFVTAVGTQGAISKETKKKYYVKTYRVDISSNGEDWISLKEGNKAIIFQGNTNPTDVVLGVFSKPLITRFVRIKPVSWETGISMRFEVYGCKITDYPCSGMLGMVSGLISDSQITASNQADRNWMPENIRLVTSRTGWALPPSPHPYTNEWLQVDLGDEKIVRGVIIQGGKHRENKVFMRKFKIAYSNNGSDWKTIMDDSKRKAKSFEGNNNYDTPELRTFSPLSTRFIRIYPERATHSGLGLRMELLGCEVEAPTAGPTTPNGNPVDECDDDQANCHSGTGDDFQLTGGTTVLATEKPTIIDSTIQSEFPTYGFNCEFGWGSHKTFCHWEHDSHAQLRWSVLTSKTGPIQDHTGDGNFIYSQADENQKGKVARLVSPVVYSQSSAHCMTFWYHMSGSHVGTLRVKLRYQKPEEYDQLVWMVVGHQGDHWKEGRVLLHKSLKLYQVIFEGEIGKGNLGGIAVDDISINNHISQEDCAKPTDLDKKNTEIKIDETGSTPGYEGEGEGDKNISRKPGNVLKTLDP

B1: YW64.3 (antibody, V domains shown)
VH: EVQLVESGGGLVQPGGSLRLSCAASGFSFSSEPISWVRQAPGKGLEWVSSITGKNGYTYYADSVKGRFTISADTSKNTAYLQMNSLRAEDTAVYYCARWGKKVYGMDVWGQGTLVTVSS
VL: DIQMTQSPSSLSASVGDRVTITCRASQSISSYLAWYQQKPGKAPKLLIYGASSRASGVPSRFSGSGSGTDFTLTISSLQPEDFATYYCQQYMSVPITFGQGTKVEIKR
B2: YW107.4.38 (antibody, V domains shown)
VH: EVQLVESGGGLVQPGGSLRLSCAASGFTFSSYAMSWVRQAPGKGLEWVSQISPAGGYTNYADSVKGRFTISADTSKNTAYLQMNSLRAEDTAVYYCARELPYYRMSKVMDVWGQGTLVTVSS
VL: B1 VL with S28Y, I29L, M92L, S93R, V94S
B3: YW107.4.87 (antibody, V domains shown)
VH: B2 VH
VL: B1 VL with S28Y, I29F, M92L, S93G, V94S, I96P
B4: YW107.4 (antibody, V domains shown)
VH: B2 VH
VL: B1 VL with M92Y, V94S, I96L
B5: YW107.4.63 (antibody, V domains shown)
VH: B2 VH
VL: B1 VL with S28Y, I29L, R54S, A55E, M92I, I96L
B6: YW107.4.18 (antibody, V domains shown)
VH: B2 VH
VL: B1 VL with S28Y, I29F, S53T, R54H, A55E, M92I, S93R, V94S, I96L
B7: YW107.4.52 (antibody, V domains shown)
VH: B2 VH
VL: B1 VL with S28Y, I29F, S53T, R54L, M92I, S93R, V94S, I96L
B8: YW107.4.76a (antibody, V domains shown)
VH: B2 VH
VL: B1 VL with S28Y, S53R, M92L, S93R, V94S, I96H

Tests used:
human NRP2 [1] = target: T1, human NRP2; assay: SPR up to 500 nM
BSA = BSA (bovine, UniProt P02769); assay: SPR up to 500 nM
BSA, sequence (P02769 25-607): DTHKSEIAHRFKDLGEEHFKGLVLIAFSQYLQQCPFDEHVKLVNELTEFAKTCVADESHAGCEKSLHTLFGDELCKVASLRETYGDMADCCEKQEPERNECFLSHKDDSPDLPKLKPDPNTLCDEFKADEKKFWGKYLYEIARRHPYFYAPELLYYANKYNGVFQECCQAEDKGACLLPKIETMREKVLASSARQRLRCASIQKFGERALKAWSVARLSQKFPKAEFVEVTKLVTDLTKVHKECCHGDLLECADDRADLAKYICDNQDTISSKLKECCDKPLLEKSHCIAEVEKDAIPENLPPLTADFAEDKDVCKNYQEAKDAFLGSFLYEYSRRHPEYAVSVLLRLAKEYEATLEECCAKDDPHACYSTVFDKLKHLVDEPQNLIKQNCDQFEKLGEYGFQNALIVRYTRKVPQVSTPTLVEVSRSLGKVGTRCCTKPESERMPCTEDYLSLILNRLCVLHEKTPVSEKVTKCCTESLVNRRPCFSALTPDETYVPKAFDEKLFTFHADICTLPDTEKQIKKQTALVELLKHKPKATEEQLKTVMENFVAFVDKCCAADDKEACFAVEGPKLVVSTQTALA

ErbB2-ECD [2] = target: T4, ErbB2-ECD (human, UniProt P04626); assay: SPR up to 500 nM
murine NRP2 [3] = target: T2, murine NRP2; assay: SPR up to 500 nM
murine NRP1 [4] = target: T3, murine NRP1; assay: SPR 25C
human NRP1 [5] = target: T5, human NRP1 (human, UniProt O14786); assay: SPR 25C
murine NRP1 [6] = target: T3, murine NRP1; assay: competition phage ELISA
human NRP1 [7] = target: T5, human NRP1; assay: competition phage ELISA
murine NRP2 [8] = target: T2, murine NRP2; assay: SPR
human NRP2 [9] = target: T1, human NRP2; assay: SPR
ErbB2-ECD [10] = target: T4, ErbB2-ECD; assay: SPR
murine NRP1 [11] = target: T3, murine NRP1; assay: competition phage ELISA
human NRP1 [12] = target: T5, human NRP1; assay: competition phage ELISA; remark: listed apart in the source

Binder | Kd (murine NRP1 [4]) | Kd (human NRP1 [5]) | IC50 (murine NRP1 [6]) | IC50 (human NRP1 [7]) | other results
B1 |  |  |  |  | binding result (human NRP2 [1]): no binding; binding result (BSA): no binding; binding result (ErbB2-ECD [2]): no binding; binding result (murine NRP2 [3]): no binding
B2 | 3.2 nM | 1.8 nM | 1.4 nM | 0.28 nM | 
B3 |  |  |  |  | binding result (murine NRP2 [8]): no binding; binding result (human NRP2 [9]): no binding
B4 | 11 nM | 5 nM | 38 nM | 6.1 nM | binding result (ErbB2-ECD [10]): no binding; binding result (human NRP2 [1]): no binding; binding result (BSA): no binding; binding result (murine NRP2 [3]): no binding; IC50 (murine NRP1 [11]): 38 nM; IC50 (human NRP1 [12]): 6.1 nM
B5 | 0.8 nM | 0.8 nM | 0.8 nM | 0.15 nM | 
B6 | 2.1 nM | 1 nM | 1.1 nM |  | 
B7 | 1.2 nM | 0.9 nM | 1.1 nM | 0.22 nM | 
B8 | 31 nM | 1.4 nM | 0.8 nM | 0.23 nM | 
